{"source": "patent US20040053249A1", "target": "Fas on Jurkat cells (cell line from human T cell) (human) (UniProt P25445)", "sequence (P25445 26-335)": "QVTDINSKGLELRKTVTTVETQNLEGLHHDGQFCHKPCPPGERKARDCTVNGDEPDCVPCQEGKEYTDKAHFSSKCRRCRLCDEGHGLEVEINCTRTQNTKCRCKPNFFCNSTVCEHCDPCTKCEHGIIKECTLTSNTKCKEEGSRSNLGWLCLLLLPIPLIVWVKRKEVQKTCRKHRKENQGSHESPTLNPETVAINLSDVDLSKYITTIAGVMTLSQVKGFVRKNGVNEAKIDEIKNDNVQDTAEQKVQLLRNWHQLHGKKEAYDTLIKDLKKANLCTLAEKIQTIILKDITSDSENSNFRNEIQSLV", "assay": "cell-based or functional assay"}
{"substance": "FLAG-IleZip-shFasL (pM1815), fusion protein of FLAG peptide, leucine zipper and the extracellular domain of human Fas ligand", "values": [{"measurement": "apoptosis-inducing activity relative to IleZip-shFasL (WST-1 assay, Jurkat cells)", "result": 10, "unit": "times"}, {"measurement": "apoptosis-inducing activity relative to shFasL (WST-1 assay, Jurkat cells)", "result": 100, "unit": "times"}]}
